Results: PMC11246403

How the values were obtained:
KNP-301 = KNP-301 (UniProt Q9Y279); test: SPR
rabbit C3b (rabbit) = rabbit C3b (rabbit) (UniProt P12247); test: ELISA
rabbit VEGF (rabbit) = test: ELISA
Human VEGF165 (human) = test: ELISA
[1] = biological target: cynomolgus C3b (cynomolgus monkey); test: ELISA
rat VEGF (rat) = rat VEGF (rat) (UniProt P16612); test: ELISA
rat C3b (rat) = rat C3b (rat) (UniProt P01026); test: ELISA
human C3b (human) = human C3b (human) (UniProt P01024); test: ELISA
[2] = biological target: cynomolgus VEGF (cynomolgus monkey); test: ELISA
C3 = C3 (UniProt P01024); test: ELISA

Sequence of UniProt P12247 (P12247 whole entry, chain 1 of 2): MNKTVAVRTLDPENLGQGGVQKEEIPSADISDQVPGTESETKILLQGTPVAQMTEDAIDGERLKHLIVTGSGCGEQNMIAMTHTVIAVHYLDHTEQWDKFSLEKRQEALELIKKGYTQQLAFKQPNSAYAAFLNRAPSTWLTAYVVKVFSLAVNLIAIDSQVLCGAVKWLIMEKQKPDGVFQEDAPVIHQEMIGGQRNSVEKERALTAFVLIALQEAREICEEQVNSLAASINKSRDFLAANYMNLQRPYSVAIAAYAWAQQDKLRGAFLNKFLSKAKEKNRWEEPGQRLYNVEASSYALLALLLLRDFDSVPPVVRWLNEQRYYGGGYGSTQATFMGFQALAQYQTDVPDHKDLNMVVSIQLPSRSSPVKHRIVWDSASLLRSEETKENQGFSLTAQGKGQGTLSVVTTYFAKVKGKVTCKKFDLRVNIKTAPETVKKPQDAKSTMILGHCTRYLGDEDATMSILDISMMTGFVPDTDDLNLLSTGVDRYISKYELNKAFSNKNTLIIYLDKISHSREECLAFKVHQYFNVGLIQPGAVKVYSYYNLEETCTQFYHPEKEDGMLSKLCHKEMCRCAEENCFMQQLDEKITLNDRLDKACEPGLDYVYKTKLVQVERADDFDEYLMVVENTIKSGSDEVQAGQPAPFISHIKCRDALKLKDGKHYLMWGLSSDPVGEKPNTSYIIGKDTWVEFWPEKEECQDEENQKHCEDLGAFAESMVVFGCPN
Sequence of UniProt P12247 (P12247 whole entry, chain 2 of 2): as the sequence (P12247 whole entry, chain 1 of 2) above
Sequence of UniProt P01026 (P01026 25-1663): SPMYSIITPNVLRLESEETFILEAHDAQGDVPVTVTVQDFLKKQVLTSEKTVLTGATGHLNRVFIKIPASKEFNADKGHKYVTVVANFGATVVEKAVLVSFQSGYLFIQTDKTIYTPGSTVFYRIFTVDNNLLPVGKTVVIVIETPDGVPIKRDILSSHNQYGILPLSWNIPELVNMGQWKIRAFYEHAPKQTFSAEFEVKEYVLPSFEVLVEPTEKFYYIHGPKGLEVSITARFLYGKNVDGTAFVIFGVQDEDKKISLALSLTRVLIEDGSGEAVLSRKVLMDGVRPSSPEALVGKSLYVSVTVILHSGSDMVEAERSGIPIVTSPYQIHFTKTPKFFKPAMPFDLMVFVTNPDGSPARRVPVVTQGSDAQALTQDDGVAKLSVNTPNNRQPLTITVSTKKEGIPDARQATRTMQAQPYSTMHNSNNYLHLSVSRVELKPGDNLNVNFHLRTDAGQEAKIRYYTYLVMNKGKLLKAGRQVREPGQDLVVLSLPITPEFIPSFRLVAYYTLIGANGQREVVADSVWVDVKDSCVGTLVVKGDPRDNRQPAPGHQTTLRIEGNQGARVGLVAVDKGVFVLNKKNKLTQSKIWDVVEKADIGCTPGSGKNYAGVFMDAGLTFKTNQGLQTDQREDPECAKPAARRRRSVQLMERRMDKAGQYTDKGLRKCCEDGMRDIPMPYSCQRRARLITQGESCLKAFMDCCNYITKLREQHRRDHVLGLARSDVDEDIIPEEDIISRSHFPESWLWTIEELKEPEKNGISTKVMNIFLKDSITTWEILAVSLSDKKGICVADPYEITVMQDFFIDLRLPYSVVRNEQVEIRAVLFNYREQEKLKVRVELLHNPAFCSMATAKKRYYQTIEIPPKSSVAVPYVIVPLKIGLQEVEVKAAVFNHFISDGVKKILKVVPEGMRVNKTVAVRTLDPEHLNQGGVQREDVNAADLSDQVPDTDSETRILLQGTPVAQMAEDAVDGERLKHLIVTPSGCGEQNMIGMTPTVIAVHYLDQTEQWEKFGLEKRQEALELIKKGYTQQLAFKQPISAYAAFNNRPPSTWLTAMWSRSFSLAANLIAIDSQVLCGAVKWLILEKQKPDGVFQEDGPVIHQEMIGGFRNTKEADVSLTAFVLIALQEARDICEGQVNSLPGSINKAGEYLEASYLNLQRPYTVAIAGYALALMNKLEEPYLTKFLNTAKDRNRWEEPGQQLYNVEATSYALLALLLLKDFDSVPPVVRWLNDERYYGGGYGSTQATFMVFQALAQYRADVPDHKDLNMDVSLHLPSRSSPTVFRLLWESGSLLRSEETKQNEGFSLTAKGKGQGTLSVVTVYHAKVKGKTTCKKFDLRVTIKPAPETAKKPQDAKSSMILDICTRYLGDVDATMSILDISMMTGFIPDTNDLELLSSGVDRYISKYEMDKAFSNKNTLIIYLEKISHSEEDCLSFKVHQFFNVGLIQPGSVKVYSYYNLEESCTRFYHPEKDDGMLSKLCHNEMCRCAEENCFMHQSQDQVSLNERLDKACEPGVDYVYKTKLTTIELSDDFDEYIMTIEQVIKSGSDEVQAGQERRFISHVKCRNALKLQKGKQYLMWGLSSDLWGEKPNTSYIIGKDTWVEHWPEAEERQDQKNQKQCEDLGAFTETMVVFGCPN

Kd (KNP-301) [nM] | relative binding affinity (%) (rabbit C3b (rabbit)) | relative binding affinity (%) (rabbit VEGF (rabbit)) | relative binding affinity (%) (Human VEGF165 (human)) | relative binding affinity (%) [1] [%] | relative binding affinity (%) (rat VEGF (rat)) | relative binding affinity (%) (rat C3b (rat)) | relative binding affinity (%) (human C3b (human)) | relative binding affinity (%) [2] [%] | fold lower binding affinity than to C3b (ratio of IC50 values) (C3) [fold] | Substance
0.0628 | – | – | – | – | – | – | – | – | – | Human VEGF165 (ligand)
– | 1.2 | 165 | 100 | 78.3 | 80.8 | 6.3 | 100 | 75.8 | 10 | KNP-301 (from UniProt Q9Y279 20-283) (Fc fusion)
4.34 | – | – | – | – | – | – | – | – | – | human C3b (from UniProt P01024 23-667; P01024 749-1663) (natural protein)
